A word on the Kd: it is the free concentration of one partner at which half of the binding sites on the other are occupied at equilibrium, for simple one-to-one binding. Usually koff stands for a measure of how fast the partners let go of each other. As a reminder, the kon is a measure of how fast the partners come together. As usually defined, the EC50 is the concentration that produces a half-maximal response.

Substitutions are numbered along the chain they refer to. Like-named read-outs stand apart in the source and are kept apart here.

The target in experiment [1] is T1, human BCMA (full-length, on cells) (human, UniProt Q02223 1-184).
T1 sequence: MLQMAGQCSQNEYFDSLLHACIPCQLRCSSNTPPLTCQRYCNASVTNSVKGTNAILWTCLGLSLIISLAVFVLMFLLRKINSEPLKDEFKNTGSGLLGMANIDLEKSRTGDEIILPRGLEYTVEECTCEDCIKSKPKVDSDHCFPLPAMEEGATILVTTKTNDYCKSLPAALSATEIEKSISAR
Put plainly: cell-based or functional assay.

The target of the next experiment is T2, cyno CD3E&G-His/Free (cynomolgus monkey, UniProt Q95LI5 22-117; Q95LI7 23-113).
T2 construct: Bought recombinant heterodimer; also called monkey CD3 E&G
T2 sequence (looked up) 1: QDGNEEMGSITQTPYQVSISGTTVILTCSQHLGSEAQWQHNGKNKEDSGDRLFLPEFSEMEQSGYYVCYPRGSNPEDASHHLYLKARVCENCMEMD
T2 sequence (looked up) 2: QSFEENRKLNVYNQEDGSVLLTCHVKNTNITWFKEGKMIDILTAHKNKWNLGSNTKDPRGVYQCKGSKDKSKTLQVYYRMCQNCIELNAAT
Put plainly: BLI (Octet), 1:1 fit.

A further experiment deals with T3, Cyno BCMA-His (cynomolgus monkey, UniProt A0A2K5UD97 1-53).
T3 construct: also called Cyno BCMA (ACRO BCA-C52H7); monkey BCMA
Put plainly: BLI (Octet), 1:1 fit. (Biolayer interferometry detects binding as a change in optical thickness at a sensor tip.)

The target of the next experiment is T4, human CD3E&G-His/Free (human, UniProt P07766 23-126; P09693 23-116).
T4 construct: Bought recombinant heterodimer; 'His/Free' as printed (one chain His-tagged); also called human CD3 E&G heterodimer
Put plainly: BLI (Octet), 1:1 fit.

Experiment [2] has as its target T5, human CD3 (on Jurkat cells and human T cells) (human, UniProt P07766 23-207).
T5 construct: whole, on cells; the other chains of the complex on the cells are not described; also called CD3E
Put plainly: flow cytometry, human CD4 T cells. (In general: Flow cytometry measures light scatter and fluorescence of single cells or particles in a stream.)

Experiment [3] concerns the target T6, cynomolgus monkey BCMA (full-length, on cells) (cynomolgus monkey, UniProt A0A2K5UD97 1-183).
T6 construct: whole, on cells; also called cynoBCMA; GS-CHO-cynoBCMA
Put plainly: flow cytometry, GS-CHO-cynoBCMA cells.

Experiment [4] concerns the target T5, human CD3 (on Jurkat cells and human T …). Put plainly: flow cytometry, human CD8 T cells.
For experiment [5] the target is unchanged. Put plainly: flow cytometry, Jurkat cells.
Experiment [6] has as its target T1, human BCMA (full-length, on cells). Put plainly: flow cytometry, GS-CHO-hBCMA cells.
For experiment [7] the target is unchanged. Put plainly: cell-based or functional assay. The source holds these as a separate data set.
Experiment [8] shares this target. Put plainly: flow cytometry, GS-CHO-hBCMA cells. The source holds these as a separate data set.
Experiment [9] has the same target. Put plainly: cell-based or functional assay. The source holds these as a separate data set.

T4 sequence (P07766 23-126, chain 1 of 2): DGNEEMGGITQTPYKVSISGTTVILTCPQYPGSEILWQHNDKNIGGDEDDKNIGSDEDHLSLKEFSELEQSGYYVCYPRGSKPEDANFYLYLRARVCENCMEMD
T4 sequence (P09693 23-116, chain 2 of 2): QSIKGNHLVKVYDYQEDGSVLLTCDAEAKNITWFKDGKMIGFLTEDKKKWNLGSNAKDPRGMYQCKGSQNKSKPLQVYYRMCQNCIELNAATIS
T5 sequence (P07766 23-207): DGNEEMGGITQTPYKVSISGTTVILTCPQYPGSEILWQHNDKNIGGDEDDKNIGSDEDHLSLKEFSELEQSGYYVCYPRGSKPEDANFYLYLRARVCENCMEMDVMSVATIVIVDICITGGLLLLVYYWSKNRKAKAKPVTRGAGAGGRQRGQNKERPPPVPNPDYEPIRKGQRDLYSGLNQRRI
T3 sequence (A0A2K5UD97 entry or part of it): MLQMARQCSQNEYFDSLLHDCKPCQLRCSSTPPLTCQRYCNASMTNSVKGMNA
T6 sequence (A0A2K5UD97 entry or part of it): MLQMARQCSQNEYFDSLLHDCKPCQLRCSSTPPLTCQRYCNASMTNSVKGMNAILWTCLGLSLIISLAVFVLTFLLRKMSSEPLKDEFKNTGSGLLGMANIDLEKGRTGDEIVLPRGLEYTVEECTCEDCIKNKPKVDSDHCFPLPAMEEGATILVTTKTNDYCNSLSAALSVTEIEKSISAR

B1: B3-7F5.3 (87) (7F5.3_sp34.87_497_triFab) (trispecific antibody, human IgG1, kappa, lambda, L234A L235A)
heavy 1: not shown
light 1: not shown
heavy 2: not shown
light 2: DIQMTQSPSSLSASVGDRVTITCRASQSISRYLNWYQDKPGKAPKLLIYAASSLQSGVPSRFSGSGSGTDFTLTISSLQPEDFATYYCQQKYFDITFGGGTKVEIKRTVAAPSVFIFPPSDECLKSGTASVVCLLNNFYPREAKVQWKVDNALQSGNSQESVTEQDSKDSTYSLSSTLTLSKADYEKHKVYACEVTHQGLSSPVTKSFNRGES
light 3: QAVVTQEPSLTVSPGGTVTLTCRSSTGAVTTSNYANWVQKKPGQAPRGLIGGTNKRAPGVPARFSGSLLGDKAALTLLGAQPEDEAEYYCALWYSNLWVFGQGTKLTVLGQPKAAPSVTLFPPSSEELQANKATLVCLISDFYPGAVTVAWKADSSPVKAGVETTTPSKQSNNKYAASSYLSLTPEQWKSHRSYSCQVTHEGSTVEKTVAPTECS
notes: also called Exemplary antibody No. 5
For the molecule B1, the “EC50 of PBMC killing of H929 ko GPRC5D cells, donor1” value (“EC50 of PBMC killing … donor1” for short) in experiment [1] worked out at 0.167 nM. Also, in the experiment with cyno CD3E&G-His/Free, the Kd amounted to 58.6 nM, the koff came out at 0.012 s⁻¹ and the kon is 205000 M⁻¹ s⁻¹. In the experiment with Cyno BCMA-His, this molecule registered a Kd of 0.244 nM, a dissociation rate constant (koff) of 0.0002 s⁻¹ and an on-rate constant (kon) of 821000 M⁻¹ s⁻¹. In the experiment with human CD3E&G-His/Free, the Kd was determined as 64.1 nM, the koff was determined as 0.0152 s⁻¹ and the on-rate constant (kon) was determined as 236000 M⁻¹ s⁻¹.

B2: JNJ-BCMA/CD3 (Teclistamab) (bispecific antibody, human IgG4 S228P, lambda, F234A L235A)
heavy 1: not shown
light 1: SYVLTQPPSVSVAPGQTARITCGGNNIGSKSVHWYQQPPGQAPVVVVYDDSDRPSGIPERFSGSNSGNTATLTISRVEAGDEAVYYCQVWDSSSDHVVFGGGTKLTVLGQPKAAPSVTLFPPSSEELQANKATLVCLISDFYPGAVTVAWKGDSSPVKAGVETTTPSKQSNNKYAASSYLSLTPEQWKSHRSYSCQVTHEGSTVEKTVAPTECS
heavy 2: EVQLVESGGGLVQPGGSLRLSCAASGFTFNTYAMNWVRQAPGKGLEWVARIRSKYNNYATYYAASVKGRFTISRDDSKNSLYLQMNSLKTEDTAVYYCARHGNFGNSYVSWFAYWGQGTLVTVSSASTKGPSVFPLAPCSRSTSESTAALGCLVKDYFPEPVTVSWNSGALTSGVHTFPAVLQSSGLYSLSSVVTVPSSSLGTKTYTCNVDHKPSNTKVDKRVESKYGPPCPPCPAPEAAGGPSVFLFPPKPKDTLMISRTPEVTCVVVDVSQEDPEVQFNWYVDGVEVHNAKTKPREEQFNSTYRVVSVLTVLHQDWLNGKEYKCKVSNKGLPSSIEKTISKAKGQPREPQVYTLPPSQEEMTKNQVSLTCLVKGFYPSDIAVEWESNGQPENNYKTTPPVLDSDGSFLLYSKLTVDKSRWQEGNVFSCSVMHEALHNHYTQKSLSLSLGK
light 2: B1 light 3 with A2T, K40Q, V60T, D71G, L78S, A80V, Q102G
notes: also called J&J BCMAxCD3
B2: the EC50 in [2] came to 25.9 nM; in experiment [3], 829 nM; in experiment [4], 24.6 nM; in experiment [5], 6.39 nM. Besides, the figures for the dissociation constant (Kd) in the experiment with cyno CD3E&G-His/Free, in the experiment with Cyno BCMA-His and with human CD3E&G-His/Free were 12.1 nM, 17.5 nM and 15.4 nM, respectively. Moreover, the koff in the experiment with cyno CD3E&G-His/Free was 0.00481 s⁻¹; with Cyno BCMA-His, 0.0338 s⁻¹; with human CD3E&G-His/Free, 0.0057 s⁻¹. The kon with cyno CD3E&G-His/Free was 396000 M⁻¹ s⁻¹; with Cyno BCMA-His, 1.94e+06 M⁻¹ s⁻¹; with human CD3E&G-His/Free it was 370000 M⁻¹ s⁻¹.

B3: B3-7F5.3 (24) (7F5.3_sp34.24_497_triFab) (trispecific antibody, human IgG1, kappa, lambda, L234A L235A)
heavy 1: not shown
light 1: not shown
heavy 2: not shown
light 2: B1 light 2
light 3: B1 light 3
notes: also called Exemplary antibody No. 6
B3: the EC50 in experiment [2] was 43.4 nM; in [6], 7.36 nM; in [3], 9.69 nM; in experiment [4], 42.4 nM. Further, the Kd in the experiment with cyno CD3E&G-His/Free stood at 10.2 nM; with human CD3E&G-His/Free, 14.4 nM. The dissociation rate constant (koff) was 0.00675 s⁻¹ in the experiment with cyno CD3E&G-His/Free and 0.00874 s⁻¹ in the experiment with human CD3E&G-His/Free. In addition, the kon in the experiment with cyno CD3E&G-His/Free was 662000 M⁻¹ s⁻¹; with human CD3E&G-His/Free it was 608000 M⁻¹ s⁻¹. The “EC50 of PBMC killing of H929 ko GPRC5D cells (LDH)” value (“EC50 of PBMC killing … (LDH)” below) in experiment [7] came to 0.0751 nM.

B4: REGN-BCMA/CD3 (REGN5458) (bispecific antibody)
VH: EVQLVESGGGLVQPGGSLRLSCAASGFTFSNFWMTWVRQAPGKGLEWVANMNQDGSEKYYVDSVKGRFTISRDNAKSSLYLQMNSLRAEDTAVYYCARDREYCISTSCYDDFDYWGQGTLVTVSS
VL: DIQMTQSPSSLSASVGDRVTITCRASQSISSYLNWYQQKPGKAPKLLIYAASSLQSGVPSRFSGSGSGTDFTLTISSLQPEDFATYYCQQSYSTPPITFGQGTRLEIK
chain: EVQLVESGGGLVQPGRSLRLSCAASGFTFDDYSMHWVRQAPGKGLEWVSGISWNSGSKGYADSVKGRFTISRDNAKNSLYLQMNSLRAEDTALYYCAKYGSGYGKFYHYGLDVWGQGTTVTVSS
In the case of B4, the half-maximal effective concentration (EC50) in experiment [8] is 76.1 nM; in experiment [2], 33.4 nM; in experiment [6] it was 59.2 nM; in experiment [3], 1320 nM; in experiment [4], 31.9 nM; in [5], 12 nM. For the same molecule, in [9], the “EC50 of PBMC killing … (LDH)” value was 0.0375 nM. The “EC50 of PBMC killing … donor1” value in experiment [1] amounted to 0.0395 nM. Also, the binding result in the experiment with cyno CD3E&G-His/Free and with human CD3E&G-His/Free was “no binding (tested: 100 nM)” each time. Moreover, the dissociation constant (Kd) in the experiment with Cyno BCMA-His was found to be 14 nM. This molecule also displayed a koff in the experiment with Cyno BCMA-His of 0.0108 s⁻¹. This molecule also had a kon with Cyno BCMA-His of 767000 M⁻¹ s⁻¹.

B5: Roche-BCMA/CD3 (Alnuctamab) (bispecific antibody, human IgG1, kappa, L234A L235A)
chain: EVQLLESGGGLVQPGGSLRLSCAASGFTFSTYAMNWVRQAPGKGLEWVSRIRSKYNNYATYYADSVKGRFTISRDDSKNTLYLQMNSLRAEDTAVYYCVRHGNFGNSYVSWFAYWGQGTLVTVSSASVAAPSVFIFPPSDEQLKSGTASVVCLLNNFYPREAKVQWKVDNALQSGNSQESVTEQDSKDSTYSLSSTLTLSKADYEKHKVYACEVTHQGLSSPVTKSFNRGEC
heavy 1: not shown
light: EIVLTQSPGTLSLSPGERATLSCRASQSVSDEYLSWYQQKPGQAPRLLIHSASTRATGIPDRFSGSGSGTDFTLAISRLEPEDFAVYYCQQYGYPPDFTFGQGTKVEIKRTVAAPSVFIFPPSDRKLKSGTASVVCLLNNFYPREAKVQWKVDNALQSGNSQESVTEQDSKDSTYSLSSTLTLSKADYEKHKVYACEVTHQGLSSPVTKSFNRGEC
heavy 2: EVQLLESGGGLVQPGGSLRLSCAASGFTFSDNAMGWVRQAPGKGLEWVSAISGPGSSTYYADSVKGRFTISRDNSKNTLYLQMNSLRAEDTAVYYCAKVLGWFDYWGQGTLVTVSSASTKGPSVFPLAPSSKSTSGGTAALGCLVEDYFPEPVTVSWNSGALTSGVHTFPAVLQSSGLYSLSSVVTVPSSSLGTQTYICNVNHKPSNTKVDEKVEPKSCDKTHTCPPCPAPEAAGGPSVFLFPPKPKDTLMISRTPEVTCVVVDVSHEDPEVKFNWYVDGVEVHNAKTKPREEQYNSTYRVVSVLTVLHQDWLNGKEYKCKVSNKALGAPIEKTISKAKGQPREPQVCTLPPSRDELTKNQVSLSCAVKGFYPSDIAVEWESNGQPENNYKTTPPVLDSDGSFFLVSKLTVDKSRWQQGNVFSCSVMHEALHNHYTQKSLSLSPGK
notes: also called Roche-BCMAxCD3
Take B5: the EC50 in experiment [6] was 3.08 nM. Further, the “EC50 of PBMC killing … donor1” value in [1] was 0.0045 nM. Also, in experiment [3], a half-maximal response (EC50) required 3.81 nM. For the same molecule, in the experiment with Cyno BCMA-His, the affinity, expressed as Kd, was 0.89 nM; the koff amounted to 0.00125 s⁻¹; the kon came to 1.4e+06 M⁻¹ s⁻¹. In the experiment with human CD3E&G-His/Free, this molecule came in with a Kd of 13 nM, a koff of 0.00469 s⁻¹ and a kon of 361000 M⁻¹ s⁻¹. In addition, the “EC50 of PBMC killing … (LDH)” value in [7] was 0.0161 nM.
